Assay results published in patent US6512102B1, “Compositions and methods of diagnosis and treatment using casein kinase I” (Chiron Corporation, priority 1998, dated 2003).
Like-named read-outs stand apart in the source and are kept apart here.

Legend:
Wnt pathway = Wnt pathway activation by CKI isoforms (ectopic axis in Xenopus embryos and Lef-1 reporter gene assay); type: cell-based
Procedure: There are seven mammalian CKI isoforms (α, β, γ1−3, δ and ε). All these isoforms contain a conserved serine-threonine kinase domain and various amino terminal and carboxyl terminal domains. CKIε and CKIδ the most closely related isoforms have a longer carboxy terminus compared to the other isoforms. […] The activation of the Wnt pathway was analyzed by induction of ectopic axis in Xenopus embryos and the Lef-1 reporter gene assay.
Lef-1 reporter assays were carried out as done as described in Sakanaka et al. (1998) Proc Natl Acad Sci USA. 95:3020-3. For example, 293 cells were seeded at 2×10^5 cells/well in 12-well culture plates. Cells were transfected with 0.2 μg of the luciferase reporter gene, 0.02 μg of Lef-1, 0.03 μg of pTK-β-gal as an internal control, the indicated amount of CKIε, Axin or Wnt-1 cDNA, and pcDNA3.1 vector to a total amount of 0.4 μg of plasmids. Transfection was performed by Lipofectamine (Lifetechnologies Inc. #18324012). Luciferase and β-gal activities were measured 48 h after transfection. Relative light units (RLU) were measured with a luminometer (Analytical Luminescence Laboratory, Monolight 2010).

Arm (β-catenin) = Arm (β-catenin) protein level in stable Drosophila Schneider cells, Western blot; type: cell-based
Excerpt: Drosophila Schneider cell lines were derived that stably express CKIε in the presence or absence of Drosophila Sgg (GSK3) protein. CKIε and sgg (GSK3) gene expression were controlled by a metallothionein promoter which is induced by copper. […] In the cells expressing CKIε and Sgg (GSK3), Arm (β-catenin) protein level is reduced.
CKIε was PCR-cloned into a vector pRmHa-3 containing a copper-inducible promoter (metallothionine). It was co-transfected with pMKK3 containing the neo-gene (G418-resistant gene) into Drosophila Schneider cells. G418 was used for selection of a stable cell line. In addition, stable cell lines containing combinations of CKIε+wt sgg, CKIε+Actsgg, CKIKD, CKIKD+DN Sgg were made. Actsgg is a mutant containing a mutation of Ser9 to Ala. To detect stabilized Arm, cells were plated 16 hours before the copper induction and lysed three hours after the copper induction. Western blots were performed with anti-Arm mAb 7A12.

GSK3 = experiment: In vitro kinase assay on GSK3; type: biochemical
Excerpt: B) Luciferase activity transduced by Dvl-1 was inhibited by CKI lys→arg 38. […] It was immunoprecipitated using anti-HA antibody and mixed with Immunoprecipitated GSK3.

[1] = test system: Lef-1 dependent transcription; experiment: Lef-1 enhancer luciferase reporter assay in Cos cells; type: cell-based
Procedure: Combinations of Wnt-1, CKIε, CKI kinase dead variant (lys→arg 38) and Lef-1 were transfected into Cos cells with a luciferase gene driven by multiple copies of Lef enhancer elements. As an internal control of transfection efficiency, the β-galactosidase gene driven by the SV40 promoter was co-transfected in all samples. 24 hours after transfection, cells were lysed and the lysate was tested for luciferase activity. The luciferase activity was normalized with respect to β-galactosidase activity. […] Dorsoanterior index (DAI) grade numbers were assigned to the phenotypes of the embryos. A grade 5 embryo is normal; a grade 3 embryo is cyclopic (one eye); a grade 1 embryo has a tail fin and somites but no head (acephalic); and a grade 0 embryo has no dorsoanterior structures (Kao et al., 1988).
The effect of CKI on Lef-1 dependent transcription in Cos mammalian cells was examined. A luciferase reporter gene driven by multiple copies of the Lef-I enhancer sequence was used. When only Wnt-I or lef-I or CKIε was transfected with the reporter construct, luciferase activity was induced only 2 to 3 fold (FIG. 1A). When Lef-1 was cotransfected with either Wnt-1 or CKIε, luciferase activity was induced 30 or 12 fold respectively.
Luciferase reporter plasmid contains multiple Lef-I enhancer sites upstream of the fos basal promoter. Various DNA plasmids encoding Wnt-1, CKIε , Dvl-1, GSK3 etc. were co-transfected with a luciferase reporter plasmid and a SV40 β-galactosidase plasmid into 24-well Cos cell culture. For each well, 0.5 μg total DNA was in a ratio of 0.08 μg:016 μg:0.02 μg for signaling molecules:luciferase: β-gal. SV40 β-gal construct was used as an internal transfection control, since β-gal activity is independent of the Wnt-1 signaling molecules. Transfection was done using LT1 (5 μl/μg DNA) (Panvera Co. # MIR23 10). Each sample was transfected in triplex repeats to obtain a statistical value. After 24 hours, cells were washed once with PBS and lysed in 50 μl/well lysis buffer supplied with the luciferase assay kit (Promega cat# EI500). 10 μl of each sample was aliquoted into two sets of tubes, one set for the luciferase assay and another for β-gal chemiluminescent reporter assay (Galacto-Light, TROPIX Inc. #BL100G). The result of the luciferase assay was divided by the corresponding β-gal activity, and then averaged.

Axin = target: T1, Axin (Homo sapiens, UniProt O15169); experiment: Co-immunoprecipitation with Axin in 293 cells; type: binding; conditions: both molecules co-expressed in 293 cells
T1 construct: expressed in transfected cells; host or cells: 293 cells
T1 sequence (O15169 whole entry, species assumed): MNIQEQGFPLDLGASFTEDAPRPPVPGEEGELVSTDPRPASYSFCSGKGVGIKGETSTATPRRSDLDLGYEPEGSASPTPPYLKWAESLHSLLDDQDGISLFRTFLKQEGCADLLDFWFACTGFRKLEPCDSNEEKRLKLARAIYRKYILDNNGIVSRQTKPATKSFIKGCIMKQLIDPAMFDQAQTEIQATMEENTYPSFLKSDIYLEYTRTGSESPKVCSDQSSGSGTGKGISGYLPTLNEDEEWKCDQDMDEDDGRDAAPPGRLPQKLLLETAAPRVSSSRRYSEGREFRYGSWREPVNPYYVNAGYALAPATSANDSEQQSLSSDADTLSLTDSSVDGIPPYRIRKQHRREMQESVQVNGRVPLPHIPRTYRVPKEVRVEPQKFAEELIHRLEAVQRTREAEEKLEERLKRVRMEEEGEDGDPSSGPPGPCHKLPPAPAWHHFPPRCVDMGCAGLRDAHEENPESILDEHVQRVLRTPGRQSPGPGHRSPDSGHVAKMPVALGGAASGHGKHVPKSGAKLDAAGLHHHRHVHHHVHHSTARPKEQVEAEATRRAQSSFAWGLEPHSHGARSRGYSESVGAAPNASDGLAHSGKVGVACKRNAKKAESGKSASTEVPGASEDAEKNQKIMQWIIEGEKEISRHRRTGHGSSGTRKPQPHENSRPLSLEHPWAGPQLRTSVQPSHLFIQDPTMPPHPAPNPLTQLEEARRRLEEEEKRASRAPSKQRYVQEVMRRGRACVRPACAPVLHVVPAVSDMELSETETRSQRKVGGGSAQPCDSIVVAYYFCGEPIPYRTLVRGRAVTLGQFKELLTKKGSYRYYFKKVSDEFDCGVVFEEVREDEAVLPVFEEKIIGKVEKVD
Procedure: Interaction of CKI with Axin When Axin was expressed in 293 cells, endogenous CKIε was found in the Axin immune-complex.
Cells were washed with PBS and lysed in buffer (20 mM Tris.HCl, pH 7.5/1 mM EDTA/0. 1% Triton X-100/[…]/1 mM phenylmethylsulfonyl fluoride/10 μg/ml each of aprotinin and leupeptin). For immunoprecipitation, cell lysates were incubated with various antibodies for 4 hours at 4° C., then added Dynabeads M-450 Sheep anti-Mouse IgG (Dynal Inc. #110.01). Enhance chemiluminescence reagents (Amersham Pharmacia Biotech) were used for detection of the immunoblots.

B1: CKIα: casein kinase I α isoform (protein, UniProt P48729 2-337, looked up)
Casein kinase I isoform alpha: ASSSGSKAEFIVGGKYKLVRKIGSGSFGDIYLAINITNGEEVAVKLESQKARHPQLLYESKLYKILQGGVGIPHIRWYGQEKDYNVLVMDLLGPSLEDLFNFCSRRFTMKTVLMLADQMISRIEYVHTKNFIHRDIKPDNFLMGIGRHCNKLFLIDFGLAKKYRDNRTRQHIPYREDKNLTGTARYASINAHLGIEQSRRDDMESLGYVLMYFNRTSLPWQGLKAATKKQKYEKISEKKMSTPVEVLCKGFPAEFAMYLNYCRGLRFEEAPDYMYLRQLFRILFRTLNHQYDYTFDWTMLKQKAAQQAASSSGQGQQAQTPTGKQTDKTKSNMKGF
- activation of the Wnt pathway (Wnt pathway): not the case

B2: Sgg: Drosophila Sgg (GSK3) protein, copper-inducible expression (protein, UniProt P18431 1-514, looked up)
Protein kinase shaggy: MSGRPRTSSFAEGNKQSPSLVLGGVKTCSRDGSKITTVVATPGQGTDRVQEVSYTDTKVIGNGSFGVVFQAKLCDTGELVAIKKVLQDRRFKNRELQIMRKLEHCNIVKLLYFFYSSGEKRDEVFLNLVLEYIPETVYKVARQYAKTKQTIPINFIRLYMYQLFRSLAYIHSLGICHRDIKPQNLLLDPETAVLKLCDFGSAKQLLHGEPNVSYICSRYYRAPELIFGAINYTTKIDVWSAGCVLAELLLGQPIFPGDSGVDQLVEVIKVLGTPTREQIREMNPNYTEFKFPQIKSHPWQKVFRIRTPTEAINLVSLLLEYTPSARITPLKACAHPFFDELRMEGNHTLPNGRDMPPLFNFTEHELSIQPSLVPQLLPKHLQNASGPGGNRPSAGGAASIAASGSTSVSSTGSGASVEGSAQPQSQGTAAAAGSGSGGATAGTGGASAGGPGSGNNSSSGGASGAPSAVAAGGANAAVAGGAGGGGGAGAATAAATATGAIGATNAGGANVTDS
- Arm (β-catenin) protein level (Arm (β-catenin); cells expressing CKIε and Sgg (GSK3)): reduced

B3: CKIε: mouse casein kinase I ε, SEQ ID NO:1, 416 amino acids, 98.9% identical to human CKIε; expressed from transfected cDNA (protein)
chain: MELRVGNKYRLGRKIGSGSFGDIYLGANIASGEEVAIKLECVKTKHPQLHIESKFYKMMQGGVGIPSIKWCGAEGDYNVMVMELLGPSLEDLFNFCSRKFSLKTVLLLADQMISRIEYIHSKNFIHRDVKPDNFLMGLGKKGNLVYIIDFGLAKKYRDARTHQHIPYRENKNLTGTARYASINTHLGIEQSRRDDLESLGYVLMYFNLGSLPWQGLKAATKRQKYERISEKKMSTPIEVLCKGYPSEFSTYLNFCRSLRFDDKPDYSYLRQLFRNLFHRQGFSYDYVFDWNMLKFGAARNPEDVDRERREHEREERMGQLRGSATRALPPGPPTGATANRLRSAAEPVASTPASRIQQTGNTSPRAISRADRERKVSMRLHRGAPANVSSSDLTGRQEVSRLAASQTSVPFDHLGK
modifications: HA tag; Mus Casein Kinase I epsilon
notes: expressed from transfected cDNA
- phosphorylation of GSK3 (GSK3; in vitro): phosphorylated purified GSK3 protein as well as immunoprecipitated GSK3 protein
- activation of the Wnt pathway (Wnt pathway): activate the Wnt pathway
- Arm (β-catenin) protein level (Arm (β-catenin); cells expressing CKIε, copper induction): significantly higher than background
- induction of transcription ([1]; Wnt-I and CKI without lef-I): did not induce the transcription
- luciferase activity induced ([1]; cotransfected with Lef-1, Cos cells): 12 fold

B4: CKIεΔ: truncated CKIε mutant where the C-terminus was deleted (protein)
chain: MELRVGNKYRLGRKIGSGSFGDIYLGANIASGEEVAIKLECVKTKHPQLHIESKFYKMMQGGVGIPSIKWCGAEGDYNVMVMELLGPSLEDLFNFCSRKFSLKTVLLLADQMISRIEYIHSKNFIHRDVKPDNFLMGLGKKGNLVYIIDFGLAKKYRDARTHQHIPYRENKNLTGTARYASINTHLGIEQSRRDDLESLGYVLMYFNLGSLPWQGLKAATKRQKYERISEKKMSTPIEVLCKGYPSEFSTYLNFCRSLRFDDKPDYSYLRQLFRNLFHRQGFSYDYVFDWNMLKFGAARNPED
modifications: left off: small tags and cut ends
notes: truncated CKIε mutant where the C-terminus was deleted
- kinase activity of C-terminally truncated mutant (GSK3): intact kinase activity
- kinase activity of C-terminally truncated mutant (GSK3; listed as C-terminally truncated CKIε): has kinase activity
- Axin binding (Axin): bound less Axin
- activation of the Wnt pathway (Wnt pathway): fails to activate the Wnt pathway

B5: CKIδ: casein kinase I δ isoform (protein, UniProt P48730 1-415, looked up)
Casein kinase I isoform delta: MELRVGNRYRLGRKIGSGSFGDIYLGTDIAAGEEVAIKLECVKTKHPQLHIESKIYKMMQGGVGIPTIRWCGAEGDYNVMVMELLGPSLEDLFNFCSRKFSLKTVLLLADQMISRIEYIHSKNFIHRDVKPDNFLMGLGKKGNLVYIIDFGLAKKYRDARTHQHIPYRENKNLTGTARYASINTHLGIEQSRRDDLESLGYVLMYFNLGSLPWQGLKAATKRQKYERISEKKMSTPIEVLCKGYPSEFATYLNFCRSLRFDDKPDYSYLRQLFRNLFHRQGFSYDYVFDWNMLKFGASRAADDAERERRDREERLRHSRNPATRGLPSTASGRLRGTQEVAPPTPLTPTSHTANTSPRPVSGMERERKVSMRLHRGAPVNISSSDLTGRQDTSRMSTSQIPGRVASSGLQSVVHR
- activation of the Wnt pathway (Wnt pathway): activate the Wnt pathway
